Source: patent US20230277625A1 (SIMCHA IL 18, published 2023)

T1: Mouse IL-18BP (amino acids 31-194), biotinylated (mouse, UniProt Q9Z0M9 29-193, biotin on the AviTag (BirA ligase))
T1 construct: also called mIL-18BP
T1 sequence: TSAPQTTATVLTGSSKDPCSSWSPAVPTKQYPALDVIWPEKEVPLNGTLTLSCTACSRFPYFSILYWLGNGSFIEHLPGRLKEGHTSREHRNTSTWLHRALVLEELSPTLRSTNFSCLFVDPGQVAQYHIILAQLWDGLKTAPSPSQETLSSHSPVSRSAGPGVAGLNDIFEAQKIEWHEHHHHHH

T2: Mouse IL-18Rα ectodomain (amino acids 19-329), biotinylated (mouse, UniProt Q61098 19-329, biotin on the AviTag (BirA ligase))
T2 construct: range 19-329; Secreted from Expi293 cells (H7 signal peptide removed); also called mIL-18Rα; mIL18Ra
T2 sequence: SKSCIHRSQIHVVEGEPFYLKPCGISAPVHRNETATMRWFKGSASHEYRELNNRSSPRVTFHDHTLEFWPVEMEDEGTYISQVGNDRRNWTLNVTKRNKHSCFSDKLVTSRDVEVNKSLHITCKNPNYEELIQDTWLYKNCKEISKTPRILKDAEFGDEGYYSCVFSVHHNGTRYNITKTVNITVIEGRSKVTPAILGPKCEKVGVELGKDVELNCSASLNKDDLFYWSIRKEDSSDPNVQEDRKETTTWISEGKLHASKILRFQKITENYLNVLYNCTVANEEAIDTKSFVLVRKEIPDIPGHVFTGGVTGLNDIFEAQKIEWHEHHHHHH


Columns and labels:
[1] = target: T1, Mouse IL-18BP (amino acids 31-194), …; assay: on-yeast binding isotherms; 10 µM used for NBD; on-yeast isotherm; ratio is a bound reckoned from 10 µM put in for NBD
Description: (§1) Individual colonies of IL-18 yeast were grown overnight at 30° C. in SDCAA liquid media and induced in SGCAA liquid media for 1 day at 20° C. IL-18 display levels on yeast were verified by flow cytometry using an anti-cMyc tag antibody (anti-myc-PE; Cell Signaling Technologies). Receptor staining with biotinylated IL-18Rα (with or without IL-18R β) or biotinylated IL-18BP was performed in PBS supplemented with 0.5% BSA and 2 mM EDTA (PBE) on ice. All analysis was performed on a Sony SA3800 flow cytometer.

[2] = target: T2, Mouse IL-18Rα ectodomain (amino acids …); assay: on-yeast binding isotherm (flow cytometry)
Procedure, shortened: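 Yeast displaying IL-18 variants were grown at 30 °C, then induced 1 day at 20 °C, with display checked by anti-myc-PE. Cells were stained on ice with biotinylated IL-18Rα (± IL-18Rβ) or biotinylated IL-18BP in PBS/0.5% BSA/2 mM EDTA. Binding was read by flow cytometry.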

[3] = target: T2, Mouse IL-18Rα ectodomain (amino acids …); assay: SPR (Biacore T100), receptor captured via biotin, IL-18 as analyte
Procedure, shortened: (§2)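 Biotinylated IL-18Rα or IL-18BP captured on a biotin CAP chip (Rmax ~50 RU or ~10 RU respectively), with serial dilutions of IL-18 variants as analyte. Run at 25° C in HBS-P+ (10 mM HEPES pH 7.4, 150 mM NaCl, 0.005% P20); guanidine/NaOH regeneration. KD from 1:1 Langmuir fit.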

[4] = target: T1, Mouse IL-18BP (amino acids 31-194), …; assay: yeast binding isotherms and SPR; members per FIG. 11A legend
[5] = target: T1, Mouse IL-18BP (amino acids 31-194), …; assay: SPR; KD ratio relative to WT IL-18; SPR; ratio normalized to WT
Procedure, shortened: as §2

[6] = target: T1, Mouse IL-18BP (amino acids 31-194), …; assay: SPR (Biacore T100), IL-18BP captured via biotin, IL-18 as analyte; SPR; weak binding, 3.8 µM
Description: (§3) Experiments were conducted using a Biacore T100 and carried out at 25° C. Biotinylated IL-18Rα or IL-18BP were immobilized onto a Biacore biotin capture chip (Series S CAP sensor chip, GE Healthcare) to yield an Rmax of ˜50 RU (IL-18Rα) or ˜10 RU (IL-18BP). Measurements were made with serial dilutions of the IL-18 variants in HEPES buffered Saline-P+buffer (10 mM HEPES pH 7.4, 150 mM NaCl, 0.005% surfactant P20). The surface was regenerated by three 60-sec injections of regeneration buffer (3/4 (v/v) 8M guanidine hydrochloride with 1/4 (v/v) 1M sodium hydroxide). Experiments were performed in multiple channels simultaneously for increased observations. All data were analyzed with the Biacore T100 evaluation software version 2.0 with a 1:1 Langmuir binding model.

[7] = target: T1, Mouse IL-18BP (amino acids 31-194), …; assay: SPR; KD for IL-18BP over KD for IL-18Rα; SPR; ratio of measured KDs
Description: as §3

[8] = target: T1, Mouse IL-18BP (amino acids 31-194), …; assay: on-yeast binding isotherms; KD ratio relative to WT IL-18; on-yeast isotherm; normalized ratio from 10 µM put in for NBD
Description: as §1

[9] = target: T1, Mouse IL-18BP (amino acids 31-194), …; assay: SPR; 30 µM used for NBD; SPR; ratio is a bound reckoned from 30 µM put in for NBD
Description: as §3

[10] = target: T1, Mouse IL-18BP (amino acids 31-194), …; assay: SPR; KD ratio relative to WT IL-18; SPR; normalized ratio from 30 µM put in for NBD
Description: as §3

[11] = target: T1, Mouse IL-18BP (amino acids 31-194), …; assay: SPR (Biacore T100), IL-18BP captured via biotin, IL-18 as analyte; SPR; very weak binding, about 15 µM
Description: as §3

Binder | KD ratio IL-18BP/IL-18Rα [1] | Kd [2] [nM] | Kd [3] [nM] | Kd [4] [nM] | Dissociation Constant Ratio normalized to WT IL-18 [5] | Kd [6] [nM] | KD ratio IL-18BP/IL-18Rα [7] | Dissociation Constant Ratio normalized to WT IL-18 [8] | KD ratio IL-18BP/IL-18Rα [9] | Dissociation Constant Ratio normalized to WT IL-18 [10] | Kd [11] [nM]
SEQ ID NO: 60 (murine DR-IL-18 variant mCS1) (ligand, Engineered variant) NFGRLHCTTAVIRNINDQVLFVDKRQPVFEDMTDIDQSASEPQTRLIIYGYADSRVRGKAVTLSVKDSKMSTLSCKNKIISFEEMDPPENIDDIQSDLIFFQKRVPGHNKMEFESSLYEGHFLACQKEDDAFKLILKKKDENGDKSVMFTLTNLHQS | > 935 | 10.7 | 0.54 | > 1000 | 3.84e+06 | 3800 | 7040 | > 4960 | – | – | –
SEQ ID NO: 64 (murine DR-IL-18 variant mE8) (ligand, Engineered variant) NFGRLHCTTAVIRNINDQVLFVDKRQPVFEDMTDIDQSASEPQTRLIIYVYTDGRRRGKAVTLSVKDSKMSTLSCKNKIISFEEMDPPENIDDIQSDLIFFQKKVPGHDKMEFESSLYEGHFLACQKEDDAFKLILKKKDENGDKSVMFTLTNLHQS | > 238 | 42 | 1.69 | – | – | – | – | > 1260 | > 17800 | > 9.68e+06 | –
SEQ ID NO: 67 (murine DR-IL-18 variant mB1) (ligand, Engineered variant) HFGRLHCTTAVIRNINDQVLFVDKRQPVFEDMTDIDQSASEPQTRLIIYGYADSDARAKAVTLSVKDSKMSTLSCKNKIISFEEMDPPENIDDIQSDLIFFQKSVPGHNKMEFESSLYEGHFLACQKEDDAFKLILKKKDENGDKSVMFTVTNLHQS | > 559 | 17.9 | 0.7 | > 1000 | 1.15e+07 | – | 21000 | > 2960 | – | – | 14700
